The text below walks through data of paper PMC11161758 (Proceedings of the National Academy of Sciences of the …, 2024).

The assay has as its target T1, N-terminal FLAG tag-p22phox (human, UniProt P13498 1-195).
T1 sequence: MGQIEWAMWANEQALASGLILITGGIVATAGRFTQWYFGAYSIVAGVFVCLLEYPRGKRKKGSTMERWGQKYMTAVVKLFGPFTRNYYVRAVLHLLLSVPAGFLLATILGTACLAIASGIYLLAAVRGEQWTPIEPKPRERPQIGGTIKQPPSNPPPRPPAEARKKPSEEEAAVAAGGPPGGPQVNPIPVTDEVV
Briefly: cryo-EM structure.

B1: NOX2 (gp91phox), catalytic subunit of phagocyte NADPH oxidase (enzyme)
chain: MGNWAVNEGLSIFVILVWLGLNVFLFVWYYRVYDIPPKFFYTRKLLGSALALARAPAACLNFNCMLILLPVCRNLLSFLRGSSACCSTRVRRQLDRNLTFHKMVAWMIALHSAIHTIAHLFNVEWCVNARVNNSDPYSVALSELGDRQNESYLNFARKRIKNPEGGLYLAVTLLAGITGVVITLCLILIITSSTKTIRRSYFEVFWYTHHLFVIFFIGLAIHGAERIVRGQTAESLAVHNITVCEQKISEWGKIKECPIPQFAGNPPMTWKWIVGPMFLYLCERLVRFWRSQQKVVITKVVTHPFKTIELQMKKKGFKMEVGQYIFVKCPKVSKLEWHPFTLTSAPEEDFFSIHIRIVGDWTEGLFNACGCDKQEFQDAWKLPKIAVDGPFGTASEDVFSYEVVMLVGAGIGVTPFASILKSVWYKYCNNATNLKLKKIYFYWLCRDTHAFEWFADLLQLLESQMQERNNAGFLSYNIYLTGWDESQANHFAVHHDEEKDVITGLKQKTLYGRPNWDNEFKTIASQHPNTRIGVFLCGPEALAETLSKQSISNSESGPRGVHFIFNKENF
modifications: N-glycan moieties at asparagines 132, 149 and 240; two hemes bound
Take B1: the stoichiometry N (in general, a count of units in the complex or per binding partner) is 1.
